The values below come from patent publication US20100280095A1 (RIKEN, published 2010).

This assay has as its target T1, endogenous Smad4 of 293T cells (UniProt Q13485 1-552).
T1 sequence (looked up): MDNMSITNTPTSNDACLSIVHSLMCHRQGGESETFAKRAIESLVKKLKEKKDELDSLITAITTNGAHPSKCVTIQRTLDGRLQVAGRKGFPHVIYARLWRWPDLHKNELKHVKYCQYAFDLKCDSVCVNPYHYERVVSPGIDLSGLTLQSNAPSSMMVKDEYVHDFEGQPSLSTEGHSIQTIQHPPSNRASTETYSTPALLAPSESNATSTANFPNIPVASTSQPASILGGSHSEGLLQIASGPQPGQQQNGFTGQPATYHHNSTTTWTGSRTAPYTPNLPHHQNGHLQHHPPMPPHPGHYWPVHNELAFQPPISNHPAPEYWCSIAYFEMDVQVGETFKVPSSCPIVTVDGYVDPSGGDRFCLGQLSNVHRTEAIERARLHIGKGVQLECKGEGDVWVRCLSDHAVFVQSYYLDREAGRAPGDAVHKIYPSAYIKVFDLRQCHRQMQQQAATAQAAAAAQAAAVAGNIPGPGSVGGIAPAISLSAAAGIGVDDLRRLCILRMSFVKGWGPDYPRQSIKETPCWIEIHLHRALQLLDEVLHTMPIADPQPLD
Put plainly: co-immunoprecipitation: anti-c-Myc IP of 293T whole cell extract, immunoblot with anti-Smad4. The text has this:
(a) An interaction between c-Myc-tagged PDLIM2 and an endogenous Smad transcription factors; 293T cells were transfected with or without a c-Myc-tagged PDLIM2 expression plasmid (c-Myc PDLIM2) and treated to obtain whole cell extracts, which were immunoprecipitated (IP) with anti-c-Myc antibody, and immunoblotted (IB) with anti-Smad2, 3 or 4 antibody. (b) Luciferase activity in mouse embryonic fibroblasts; with or without a plasmid that encodes PDLIM2, the cells were transfected with a plasmid that encodes a TARE luciferase reporter (pTARE-Luc), after which the cells were stimulated with human TGFβ (10 ng/ml) for 6 hours and assayed.
All lysis buffers used for immunoblot analysis contained a proteinase inhibitor cocktail (Roche). Cytoplasmic and nuclear extracts were prepared as follows. Cells were lysed on ice for 10 min with hypotonic buffer (20 mM HEPES pH 8.0, 10 mM KCl, 1 mM MgCl₂, 0.1% Triton X-100, 20% glycerol). After centrifugation (5,000 rpm, 1 min), supernatants were collected and used as cytoplasmic fractions. The pellets were next lysed on ice for 20 min after brief vortexing with hypertonic buffer (20 mM HEPES pH 8.0, 1 mM EDTA, 20% glycerol, 0.1% Triton X-100, 400 mM NaCl). After centrifugation (15,000 rpm, 5 min), supernatants were collected and used as nuclear fractions. […]

B1: c-Myc-tagged PDLIM2 (murine Pdlim2 coding region in pCMV-Myc) (enzyme)
chain: MALTVDVAGPAPWGFRISGGRDFHTPIIVTKVTERGKAEAADLRPGDIIVAINGQSAENMLHAEAQSKIRQSASPLRLQLDRSQTASPGQTNGEGSLEVLATRFQGSLRTHRDSQSSQRSACFSPVSLSPRPCSPFSTPPPTSPVALSKEDMIGCSFQSLTHSPGLAAAHHLTYPGHPTSQQAGHSSPSDSAVRVLLHSPGRPSSPRFSSLDLEEDSEVFKMLQENRQGRAAPRQSSSFRLLQEALEAEERGGTPAFVPSSLSSQASLPTSRALATPPKLHTCEKCSVNISNQAVRIQEGRYRHPGCYTCADCGLNLKMRGHFWVGNELYCEKHARQRYSMPGTLNSRA
notes: Expressed in 293T cells and tested in whole cell extracts; also called c-Myc PDLIM2; PDZ and LIM domain protein-2; not shown: c-Myc tag from vector pCMV-Myc (Clontech)
Consider B1, for which the binding result was “no binding”.
